Measured values as given in article PMC10932606.

Target: semiSWEET
Test: native MS

percent dimer: > 95%
stoichiometry N: 2
Substance: semiSWEET (natural protein)
